What all share (format): biochemical
The nature of series [1]: Validation of generalist properties: oxidation of loratadine by lyophilized P450-BM3 variant, UPLC-MS. Particulars: [Loratadine] = 1 mM; for TON: TON = [substrate]*% conversion/[P450]; for FIOPC (D06): fold improvement over parent MCYP-P1.2-D06. The procedure, abridged:
(§1)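 Lyophilized lysate of E. coli-expressed P450-BM3 variant (stock standardized to 12 μM heme) was incubated 24 h at 30 °C with 1 or 2 mM substrate, 1.0 mM NADP+, 25 mM glucose, 0.5 mg/mL glucose dehydrogenase and 5% DMSO in 100 mM potassium phosphate. Acetonitrile-quenched samples were analyzed by UPLC-MS (positive ESI).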

A short description of series [2]: Validation of generalist properties: oxidation of diclofenac by lyophilized P450-BM3 variant, UPLC-MS. Particulars: [Diclofenac] = 1 mM; for TON: TON = [substrate]*% conversion/[P450]; for FIOPC (D06): fold improvement over parent MCYP-P1.2-D06. The procedure, abridged: as §1
A short description of series [3]: Validation of generalist properties: oxidation of gefitinib by lyophilized P450-BM3 variant, UPLC-MS. To be noted: [Gefitinib] = 1 mM; for TON: TON = [substrate]*% conversion/[P450]; for FIOPC (D06): fold improvement over parent MCYP-P1.2-D06. The procedure, abridged:
as §1

Series [4] is described as follows: Validation of generalist properties: oxidation of imatinib by lyophilized P450-BM3 variant, UPLC-MS. To be noted: [Imatinib] = 1 mM; for TON: TON = [substrate]*% conversion/[P450]; for FIOPC (D06): fold improvement over parent MCYP-P1.2-D06. Put shortly:
as §1

B1: SEQ ID NO: 14: P450-BM3 parental backbone from the commercially available MCYP panel (MCYP-0343; Codexis) (protein)
chain: MTIKEMPQPKTFGELKNLPLLNTDKPVQALMKIADELGEIFKFEAPGLVTRYLSSQRLIKEACDESRFDKNLSQALKFARDFAGDGLFTSWTHEKNWKKAHNILLPSFSQQAMKGYHAMMVDIAVQLVQKWERLNADEHIEVPEDMTRLTLDTIGLCGFNYRFNSFYRDQPHPFITSMVRALDEAMNKQQRANPDDPAYDENKRQFQEDIKVMNDLVDKIIADRKASGEQSDDLLTHMLNGKDPETGEPLDDENIRYQIITFLIAGHETTSGLLSFALYFLVKNPHVLQKAAEEAARVLVDPVPSYKQVKQLKYVGMVLNEALRLWPTAPAFSLYAKEDTVLGGEYPLEKGDELMVLIPQLHRDKTIWGDDVEEFRPERFENPSAIPQHAFKPFGNGQRACIGQQFALHEATLVLGMMLKHFDFEDHTNYELDIKETLTLKPEGFVVKAKSKKIPLGGIPSPSTEQSAKKVRKKAENAHNTPLLVLYGSNMGTAEGTARDLADIAMSKGFAPQVATLDSHAGNLPREGAVLIVTASYNGHPPDNAKQFVDWLDQASADEVKGVRYSVFGCGDKNWATTYQKVPAFIDETLAAKGAENIADRGEADASDDFEGTYEEWREHMWSDVAAYFNLDIENSEDNKSTLSLQFVDSAADMPLAKMHGAFSTNVVASKELQQPGSARSTRHLEIELPKEASYQEGDHLGVIPRNYEGIVNRVTARFGLDASQQIRLEAEEEKLAHLPLAKTVSVEELLQYVELQDPVTRTQLRAMAAKTVCPPHKVELEALLEKQAYKEQVLAKRLTMLELLEKYPACEMKFSEFIALLPSIRPRYYSISSSPRVDEKQASITVSVVSGEAWSGYGEYKGIASNYLAELQEGDTITCFISTPQSEFTLPKDPETPLIMVGPGTGVAPFRGFVQARKQLKEQGQSLGEAHLYFGCRSPHEDYLYQEELENAQSEGIITLHTAFSRMPNQPKTYVQHVMEQDGKKLIELLDQGAHFYICGDGSQMAPAVEATLMKSYADVHQVSEADARLWLQQLEEKGRYAKDVWAG
modifications: P450_BM3
Turning to B1, the “% Conv.” value in series [1], in series [2], in series [3] and in series [4] was “+ (0-5.00)” in each case. The TON entry in series [1] was “‡‡ (1001-5000)”; in series [2] it was “‡ (0-1000)”; in series [3] it was “‡ (0-1000)”; in series [4], “‡‡ (1001-5000)”.

B2: SEQ ID NO: 12: P450-BM3 parental backbone from the commercially available MCYP panel (MCYP-0343; Codexis) (protein)
chain: MTIKEMPQPKTFGELKNLPLLNTDKPVQALMKIADELGEIFKFEAPGCVTRYLSSQRLIKEACDESRFDKNLSQALKFSRDFAGDGLFTSWTHEINWKKAHNILLPSFSQQAMKGYHAMMVDIAVQLVQKWERLNADEHIEVSEDMTRLTLDTIGLCGFNYRFNSFYRDQPHPFIISMVRALDEVMNKLQRANPDDPAYDENKRQCQEDIKVMNDLVDKIIADRKARGEQSDDLLTQMLNGKDPETGEPLDDGNISYQIITFLIAGHETTSGLLSFALYFLVKNPHVLQKVAEEAARVLVDPVPSYKQVKQLKYVGMVLNEALRLWPTAPAFSLYAKEDTVLGGEYPLEKGDEVMVLIPQLHRDKTIWGDDVEEFRPERFENPSAIPQHAFKPFGNGQRACIGQQFALHEATLVLGMMLKHFDFEDHTNYELDIKETLTLKPEGFVVKAKSKKIPLGGIPSPSTEQSAKKVRKKAENAHNTPLLVLYGSNMGTAEGTARDLADIAMSKGFAPQVATLDSHAGNLPREGAVLIVTASYNGHPPDNAKQFVDWLDQASADEVKGVRYSVFGCGDKNWATTYQKVPAFIDETLAAKGAENIADRGEADASDDFEGTYEEWREHMWSDVAAYFNLDIENSEDNKSTLSLQFVDSAADMPLAKMHGAFSTNVVASKELQQPGSARSTRHLEIELPKEASYQEGDHLGVIPRNYEGIVNRVTARFGLDASQQIRLEAEEEKLAHLPLAKTVSVEELLQYVELQDPVTRTQLRAMAAKTVCPPHKVELEALLEKQAYKEQVLAKRLTMLELLEKYPACEMKFSEFIALLPSIRPRYYSISSSPRVDEKQASITVSVVSGEAWSGYGEYKGIASNYLAELQEGDTITCFISTPQSEFTLPKDPETPLIMVGPGTGVAPFRGFVQARKQLKEQGQSLGEAHLYFGCRSPHEDYLYQEELENAQSEGIITLHTAFSRMPNQPKTYVQHVMEQDGKKLIELLDQGAHFYICGDGSQMAPAVEATLMKSYADVHQVSEADARLWLQQLEEKGRYAKDVWAG
modifications: P450_BM3
In the case of B2, the “% Conv.” value in series [1] is listed as “+ (0-5.00)”; in series [2], “+ (0-5.00)”; in series [3] it was “+ (0-5.00)”; in series [4] it was “++ (5.01-10.00)”. Also, the TON entry in series [1] is listed as “‡‡ (1001-5000)”; in series [2] it was “‡‡ (1001-5000)”; in series [3], “‡ (0-1000)”; in series [4], “‡‡ (1001-5000)”.

B3: Variant 12: P450-BM3 variant of SEQ ID NO: 12: K32R; C48S; Y52F; I95P; Q111R; G115R; D232H; M491A; T577A; A627S; D722S (protein)
chain: MTIKEMPQPKTFGELKNLPLLNTDKPVQALMRIADELGEIFKFEAPGSVTRFLSSQRLIKEACDESRFDKNLSQALKFSRDFAGDGLFTSWTHEPNWKKAHNILLPSFSQRAMKRYHAMMVDIAVQLVQKWERLNADEHIEVSEDMTRLTLDTIGLCGFNYRFNSFYRDQPHPFIISMVRALDEVMNKLQRANPDDPAYDENKRQCQEDIKVMNDLVDKIIADRKARGEQSHDLLTQMLNGKDPETGEPLDDGNISYQIITFLIAGHETTSGLLSFALYFLVKNPHVLQKVAEEAARVLVDPVPSYKQVKQLKYVGMVLNEALRLWPTAPAFSLYAKEDTVLGGEYPLEKGDEVMVLIPQLHRDKTIWGDDVEEFRPERFENPSAIPQHAFKPFGNGQRACIGQQFALHEATLVLGMMLKHFDFEDHTNYELDIKETLTLKPEGFVVKAKSKKIPLGGIPSPSTEQSAKKVRKKAENAHNTPLLVLYGSNAGTAEGTARDLADIAMSKGFAPQVATLDSHAGNLPREGAVLIVTASYNGHPPDNAKQFVDWLDQASADEVKGVRYSVFGCGDKNWAATYQKVPAFIDETLAAKGAENIADRGEADASDDFEGTYEEWREHMWSDVASYFNLDIENSEDNKSTLSLQFVDSAADMPLAKMHGAFSTNVVASKELQQPGSARSTRHLEIELPKEASYQEGDHLGVIPRNYEGIVNRVTARFGLSASQQIRLEAEEEKLAHLPLAKTVSVEELLQYVELQDPVTRTQLRAMAAKTVCPPHKVELEALLEKQAYKEQVLAKRLTMLELLEKYPACEMKFSEFIALLPSIRPRYYSISSSPRVDEKQASITVSVVSGEAWSGYGEYKGIASNYLAELQEGDTITCFISTPQSEFTLPKDPETPLIMVGPGTGVAPFRGFVQARKQLKEQGQSLGEAHLYFGCRSPHEDYLYQEELENAQSEGIITLHTAFSRMPNQPKTYVQHVMEQDGKKLIELLDQGAHFYICGDGSQMAPAVEATLMKSYADVHQVSEADARLWLQQLEEKGRYAKDVWAG
modifications: P450_BM3
notes: C48S; Y52F; I95P; Q111R; G115R; D232H; M491A; T577A; A627S; D722S
Turning to B3, the “% Conv.” value in series [1] is “++ (5.01-10.00)”; in series [2], “+++ (10.01-15.00)”; in series [3] it was “+ (0-5.00)”; in series [4], “++++ (15.01-20.00)”. The TON result was “‡‡ (1001-5000)” in series [1], “‡‡‡ (5001-10000)” in series [2], “‡ (0-1000)” in series [3] and “‡‡‡‡ (10000-50000)” in series [4]. Besides, the “FIOPC (D06)” value is on record as “* (0.0-3.0)” in series [1], “** (3.01-5.0)” in series [2], “* (0.0-3.0)” in series [3] and “*** (5.01-10.0)” in series [4].

B4: Variant 13: P450-BM3 variant of SEQ ID NO: 12: K32R; C48S; Y52F; I95P; G115R; D232H; M491A; N574T; T577A; E619D; A627S; D722S (protein)
chain: MTIKEMPQPKTFGELKNLPLLNTDKPVQALMRIADELGEIFKFEAPGSVTRFLSSQRLIKEACDESRFDKNLSQALKFSRDFAGDGLFTSWTHEPNWKKAHNILLPSFSQQAMKRYHAMMVDIAVQLVQKWERLNADEHIEVSEDMTRLTLDTIGLCGFNYRFNSFYRDQPHPFIISMVRALDEVMNKLQRANPDDPAYDENKRQCQEDIKVMNDLVDKIIADRKARGEQSHDLLTQMLNGKDPETGEPLDDGNISYQIITFLIAGHETTSGLLSFALYFLVKNPHVLQKVAEEAARVLVDPVPSYKQVKQLKYVGMVLNEALRLWPTAPAFSLYAKEDTVLGGEYPLEKGDEVMVLIPQLHRDKTIWGDDVEEFRPERFENPSAIPQHAFKPFGNGQRACIGQQFALHEATLVLGMMLKHFDFEDHTNYELDIKETLTLKPEGFVVKAKSKKIPLGGIPSPSTEQSAKKVRKKAENAHNTPLLVLYGSNAGTAEGTARDLADIAMSKGFAPQVATLDSHAGNLPREGAVLIVTASYNGHPPDNAKQFVDWLDQASADEVKGVRYSVFGCGDKTWAATYQKVPAFIDETLAAKGAENIADRGEADASDDFEGTYEEWRDHMWSDVASYFNLDIENSEDNKSTLSLQFVDSAADMPLAKMHGAFSTNVVASKELQQPGSARSTRHLEIELPKEASYQEGDHLGVIPRNYEGIVNRVTARFGLSASQQIRLEAEEEKLAHLPLAKTVSVEELLQYVELQDPVTRTQLRAMAAKTVCPPHKVELEALLEKQAYKEQVLAKRLTMLELLEKYPACEMKFSEFIALLPSIRPRYYSISSSPRVDEKQASITVSVVSGEAWSGYGEYKGIASNYLAELQEGDTITCFISTPQSEFTLPKDPETPLIMVGPGTGVAPFRGFVQARKQLKEQGQSLGEAHLYFGCRSPHEDYLYQEELENAQSEGIITLHTAFSRMPNQPKTYVQHVMEQDGKKLIELLDQGAHFYICGDGSQMAPAVEATLMKSYADVHQVSEADARLWLQQLEEKGRYAKDVWAG
modifications: P450_BM3
notes: C48S; Y52F; I95P; G115R; D232H; M491A; N574T; T577A; E619D; A627S; D722S
Take B4: the “% Conv.” value is on record as “+ (0-5.00)” in series [1], “++++ (15.01-20.00)” in series [2], “+ (0-5.00)” in series [3] and “++++ (15.01-20.00)” in series [4]. For the same molecule, the TON result was “‡‡ (1001-5000)” in series [1], “‡‡‡ (5001-10000)” in series [2], “‡‡ (1001-5000)” in series [3] and “‡‡‡‡ (10000-50000)” in series [4]. In addition, the “FIOPC (D06)” value was “* (0.0-3.0)” in series [1], “*** (5.01-10.0)” in series [2], “**** (10.01-15.00)” in series [3] and “*** (5.01-10.0)” in series [4].

(Values after patent US10704030B2, “P450-BM3 variants with improved activity” (Codexis, Inc., priority 2015, dated 2020).)
